Test results published in US20250152742A1, “COMPOSITIONS AND METHODS FOR NEUROLOGICAL DISEASES” (Trames Bio, Inc., priority 2022, published 2025).

System: engineered chimeric receptor SEQ ID NO: 33 and its mutants (human α7-nAChR ligand binding domain / human GlyRα1 ion pore domain) in Lenti-X 293T cells
Test: YFP fluorescence quenching anion reporter plate reader assay (percent quench, EC50)
Type: cell-based
Conditions: for YFP fluorescence quenching using CNL001 (percent quench): receptor named in row; for YFP fluorescence quenching using Varenicline, 3 nM var: ligand Varenicline 3 nM; for YFP fluorescence quenching using Varenicline, 30 nM var: ligand Varenicline 30 nM; for YFP fluorescence quenching using Varenicline, 300 nM var: ligand Varenicline 300 nM; for YFP fluorescence quenching using Varenicline, 500 nM var: ligand Varenicline 500 nM; for YFP fluorescence quenching using Varenicline, 1 uM var: ligand Varenicline 1 uM
How it was run: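 Percent quench compares mean YFP signal over the final 10 s with the 15 s baseline before ligand, added in iodide-containing extracellular solution (pH 7.2). Cells were LX293T carrying a YFP anion reporter, transiently transfected with the channel construct; plates were preincubated 30 min at 37 °C.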

[1] = 1 nM CNL001, first column so headed
[2] = 1 nM CNL001, second column so headed
[3] = 1 nM brd (TC-5619/Bradanicline)
[4] = 3 nM brd (TC-5619/Bradanicline)
[5] = 10 nM CNL001, first column so headed
[6] = 10 nM CNL001, second column so headed
[7] = 10 nM brd (TC-5619/Bradanicline)
[8] = 30 nM brd (TC-5619/Bradanicline)
[9] = 50 nM CNL001, first column so headed
[10] = 50 nM CNL001, second column so headed
[11] = 100 nM CNL001, first column so headed
[12] = 100 nM CNL001, second column so headed
[13] = 300 nM brd (TC-5619/Bradanicline)
[14] = 1 uM CNL001, first column so headed
[15] = 1 uM CNL001, second column so headed

B1: CODA1039: engineered receptor: Y115E, Y210W in SEQ ID NO: 33 (protein)
chain: MRCSPGGVWLALAASLLHVSLQGEFQRKLYKELVKNYNPLERPVANDSQPLTVYFSLSLLQIMDVDEKNQVLTTNIWLQMSWTDHYLQWNVSEYPGVKTVRFPDGQIWKPDILLENSADERFDATFHTNVLVNSSGHCQYLPPGIFKSSCPMDLKNFPMDVQTCKLKFGSWSYGGWSLDLQMQEADISGYIPNGEWDLVGIPGKRSERFWECCKEPYPDVTFTVTMRRRMGYYLIQMYIPSLLIVILSWISFWINMDAAPARVGLGITTVLTMTTQSSGSRASLPKVSYVKAIDIWMAVCLLFVFSALLEYAAVNFVSRQHKELLRFRRKRRHHKSPMLNLFQEDEAGEGRFNFSAYGMGPACLQAKDGISVKGANNSNTTNPPPAPSKSPEEMRKLFIQRAKKIDKISRIGFPMAFLIFNMFYWIIYKIVRREDVHNQ
modifications: synthetic sequence of chimeric LGIC
- YFP fluorescence quenching using CNL001 (percent quench) [1]: −1.12%
- YFP fluorescence quenching using CNL001 (percent quench) [2]: −3.941%
- YFP fluorescence quenching using TC-5619/Bradanicline (percent quench) [3]: −5.55%
- YFP fluorescence quenching using TC-5619/Bradanicline (percent quench) [4]: 6.78%
- YFP fluorescence quenching using CNL001 (percent quench) [5]: 6.275%
- YFP fluorescence quenching using CNL001 (percent quench) [6]: 11.943%
- YFP fluorescence quenching using TC-5619/Bradanicline (percent quench) [7]: −2.7%
- YFP fluorescence quenching using TC-6683 (percent quench) (30 nM TC-6683): −1.608%
- YFP fluorescence quenching using TC-5619/Bradanicline (percent quench) [8]: 34.43%
- YFP fluorescence quenching using CNL001 (percent quench) [9]: 12.949%
- YFP fluorescence quenching using CNL001 (percent quench) [10]: 18.635%
- YFP fluorescence quenching using ABT-126 (percent quench) (50 nM abt (ABT-126)): −17.32%
- YFP fluorescence quenching using CNL001 (percent quench) [11]: 17.576%
- YFP fluorescence quenching using CNL001 (percent quench) [12]: 18.319%
- YFP fluorescence quenching (percent quench) (100 nM CNL002): 21.85%
- YFP fluorescence quenching using ABT-126 (percent quench) (100 nM abt (ABT-126)): −13.93%
- YFP fluorescence quenching using AZD-0328 (percent quench) (100 nM azd0328): −10.45%
- YFP fluorescence quenching using TC-6683 (percent quench) (300 nM TC-6683): −3.491%
- YFP fluorescence quenching using ABT-126 (percent quench) (300 nM abt (ABT-126)): 9.9%
- YFP fluorescence quenching using AZD-0328 (percent quench) (300 nM azd0328): −13%
- YFP fluorescence quenching using TC-5619/Bradanicline (percent quench) [13]: 70.05%
- YFP fluorescence quenching using ABT-126 (percent quench) (500 nM abt (ABT-126)): 36.97%
- YFP fluorescence quenching using CNL001 (percent quench) [14]: 19.329%
- YFP fluorescence quenching using CNL001 (percent quench) [15]: 20.672%
- YFP fluorescence quenching (percent quench) (1 uM CNL002): 47.37%
- YFP fluorescence quenching using ABT-126 (percent quench) (1 uM abt (ABT-126)): 48.37%
- YFP fluorescence quenching using TC-6683 (percent quench) (3 uM TC-6683): −6.153%
- YFP fluorescence quenching using ABT-126 (percent quench) (3 uM abt (ABT-126)): 50.5%
- YFP fluorescence quenching using ABT-126 (percent quench) (10 uM abt (ABT-126)): 58.13%
- YFP fluorescence quenching (percent quench) (10 uM ach (acetylcholine)): −2.97%
- YFP fluorescence quenching (percent quench) (30 uM CNL002): 59.97%
- YFP fluorescence quenching using TC-6683 (percent quench) (30 uM TC-6683): −9.263%
- YFP fluorescence quenching using ABT-126 (percent quench) (30 uM abt (ABT-126)): 64.1%
- YFP fluorescence quenching using AZD-0328 (percent quench) (30 uM azd0328): 30.76%
- YFP fluorescence quenching using ABT-126 (percent quench) (50 uM abt (ABT-126)): 66.67%
- YFP fluorescence quenching (percent quench) (50 uM ach (acetylcholine)): −3.94%
- YFP fluorescence quenching using TC-6683 (percent quench) (100 uM TC-6683): −9.19%
- YFP fluorescence quenching using ABT-126 (percent quench) (100 uM abt (ABT-126)): 68.63%
- YFP fluorescence quenching (percent quench) (100 uM ach (acetylcholine)): 0.35%
- YFP fluorescence quenching (percent quench) (300 uM ach (acetylcholine)): −4.13%
- YFP fluorescence quenching (percent quench) (500 uM ach (acetylcholine)): −5.18%
- YFP fluorescence quenching (percent quench) (1 mM ach (acetylcholine)): 1.21%
- YFP fluorescence quenching (percent quench) (3 mM ach (acetylcholine)): 26.69%
- YFP fluorescence quenching using Facinicline, 30 nM fac (ligand Facinicline 30 nM): −13.46
- YFP fluorescence quenching using Facinicline, 300 nM fac (ligand Facinicline 300 nM): 5.43
- YFP fluorescence quenching using Facinicline, 30 uM fac (ligand Facinicline 30 uM): 49.06
- YFP fluorescence quenching using TC-6987, 1 uM tc6987 (ligand TC-6987 1 uM): 7.26
- YFP fluorescence quenching using TC-6987, 10 uM tc6987 (ligand TC-6987 10 uM): 11
- YFP fluorescence quenching using TC-6987, 500 uM tc6987 (ligand TC-6987 500 uM): 7.97
- YFP fluorescence quenching using Varenicline, 3 nM var (first column): −10.926
- YFP fluorescence quenching using Varenicline, 3 nM var (second column): −7.395
- YFP fluorescence quenching using Varenicline, 30 nM var (first column): −5.661
- YFP fluorescence quenching using Varenicline, 30 nM var (second column): −1.244
- YFP fluorescence quenching using Varenicline, 300 nM var (first column): −4.555
- YFP fluorescence quenching using Varenicline, 300 nM var (second column): 1.081
- YFP fluorescence quenching using Varenicline, 500 nM var (first column): 9.172
- YFP fluorescence quenching using Varenicline, 500 nM var (second column): 12.561
- YFP fluorescence quenching using Varenicline, 1 uM var (first column): 7.139
- YFP fluorescence quenching using Varenicline, 1 uM var (second column): 12.664

B2: CODA1045: engineered receptor: R101W, Y210V in SEQ ID NO: 33 (protein)
chain: MRCSPGGVWLALAASLLHVSLQGEFQRKLYKELVKNYNPLERPVANDSQPLTVYFSLSLLQIMDVDEKNQVLTTNIWLQMSWTDHYLQWNVSEYPGVKTVWFPDGQIWKPDILLYNSADERFDATFHTNVLVNSSGHCQYLPPGIFKSSCPMDLKNFPMDVQTCKLKFGSWSYGGWSLDLQMQEADISGYIPNGEWDLVGIPGKRSERFVECCKEPYPDVTFTVTMRRRMGYYLIQMYIPSLLIVILSWISFWINMDAAPARVGLGITTVLTMTTQSSGSRASLPKVSYVKAIDIWMAVCLLFVFSALLEYAAVNFVSRQHKELLRFRRKRRHHKSPMLNLFQEDEAGEGRFNFSAYGMGPACLQAKDGISVKGANNSNTTNPPPAPSKSPEEMRKLFIQRAKKIDKISRIGFPMAFLIFNMFYWIIYKIVRREDVHNQ
modifications: synthetic sequence of chimeric LGIC
- YFP fluorescence quenching using CNL001 (percent quench) [1]: 0.804%
- YFP fluorescence quenching using CNL001 (percent quench) [2]: 11.275%
- YFP fluorescence quenching using TC-5619/Bradanicline (percent quench) [3]: −1.431%
- YFP fluorescence quenching using TC-5619/Bradanicline (percent quench) [4]: −14.993%
- YFP fluorescence quenching using CNL001 (percent quench) [5]: 15.843%
- YFP fluorescence quenching using CNL001 (percent quench) [6]: 16.619%
- YFP fluorescence quenching using TC-5619/Bradanicline (percent quench) [7]: −5.52%
- YFP fluorescence quenching using TC-6683 (percent quench) (30 nM TC-6683): 1.735%
- YFP fluorescence quenching using TC-5619/Bradanicline (percent quench) [8]: 15.49%
- YFP fluorescence quenching using CNL001 (percent quench) [9]: 15.205%
- YFP fluorescence quenching using CNL001 (percent quench) [10]: 18.771%
- YFP fluorescence quenching using ABT-126 (percent quench) (50 nM abt (ABT-126)): −24.16%
- YFP fluorescence quenching using CNL001 (percent quench) [11]: 9.332%
- YFP fluorescence quenching using CNL001 (percent quench) [12]: 18.218%
- YFP fluorescence quenching using ABT-126 (percent quench) (100 nM abt (ABT-126)): −24.7%
- YFP fluorescence quenching using TC-5619/Bradanicline (percent quench) (100 nM brd (TC-5619/Bradanicline)): 72.105%
- YFP fluorescence quenching using TC-6683 (percent quench) (300 nM TC-6683): 0.642%
- YFP fluorescence quenching using ABT-126 (percent quench) (300 nM abt (ABT-126)): −16.09%
- YFP fluorescence quenching using TC-5619/Bradanicline (percent quench) [13]: 71.411%
- YFP fluorescence quenching using CNL001 (percent quench) [14]: 35.294%
- YFP fluorescence quenching using CNL001 (percent quench) [15]: 36.542%
- YFP fluorescence quenching using ABT-126 (percent quench) (1 uM abt (ABT-126)): −11.61%
- YFP fluorescence quenching using TC-6683 (percent quench) (3 uM TC-6683): 2.403%
- YFP fluorescence quenching (percent quench) (10 uM ach (acetylcholine)): −2.52%
- YFP fluorescence quenching using TC-6683 (percent quench) (30 uM TC-6683): 6.006%
- YFP fluorescence quenching using TC-6683 (percent quench) (100 uM TC-6683): −4.277%
- YFP fluorescence quenching (percent quench) (100 uM ach (acetylcholine)): −11.98%
- YFP fluorescence quenching (percent quench) (300 uM ach (acetylcholine)): −16.71%
- YFP fluorescence quenching (percent quench) (500 uM ach (acetylcholine)): −12.87%
- YFP fluorescence quenching (percent quench) (1 mM ach (acetylcholine)): −14.41%
- YFP fluorescence quenching (percent quench) (3 mM ach (acetylcholine)): −7.4%
- YFP fluorescence quenching (percent quench) (10 mM ach (acetylcholine)): −1.5%
- YFP fluorescence quenching using Varenicline, 3 nM var (first column): 6.745
- YFP fluorescence quenching using Varenicline, 3 nM var (second column): 8.397
- YFP fluorescence quenching using Varenicline, 30 nM var (first column): 14.1
- YFP fluorescence quenching using Varenicline, 30 nM var (second column): 19.095
- YFP fluorescence quenching using Varenicline, 300 nM var (first column): 16.83
- YFP fluorescence quenching using Varenicline, 300 nM var (second column): 21.507
- YFP fluorescence quenching using Varenicline, 500 nM var (first column): 21.586
- YFP fluorescence quenching using Varenicline, 500 nM var (second column): 23.131
- YFP fluorescence quenching using Varenicline, 1 uM var (first column): 31.591
- YFP fluorescence quenching using Varenicline, 1 uM var (second column): 26.479
